Results from publication PMC9727190, “Characterization and identification of a novel chromosomal class C β-lactamase, LAQ-1, and comparative genomic analysis of a multidrug resistance plasmid in Lelliottia amnigena P13” (Frontiers in Microbiology, 2022).

What was measured:
[1] = test system: CO[C@@]1(NC(=O)Cc2cccs2)C(=O)N2C(C(=O)O)=C(COC(N)=O)CS[C@@H]21; test: hydrolysis initial rates, UV-VIS spectrophotometry, Michaelis-Menten fit; assay type: biochemical, Lelliottia amnigena; conditions: 10 mM phosphate buffer pH 7.0, 37°C
Description: (§1) hydrolysis initial rates, UV-VIS spectrophotometry, Michaelis-Menten fit on LAQ-1

[2] = test system: CCN1CCN(C(=O)N[C@@H](C(=O)N[C@@H]2C(=O)N3[C@@H]2SC(C)(C)[C@@H]3C(=O)O)c2ccccc2)C(=O)C1=O; test: as above; assay type: biochemical, Lelliottia amnigena; conditions: 10 mM phosphate buffer pH 7.0, 37°C
Description: as §1

[3] = test system: CC(C)(O/N=C(\C(=O)N[C@@H]1C(=O)N2C(C(=O)[O-])=C(C[n+]3ccccc3)CS[C@H]12)c1csc(N)n1)C(=O)O; test: as above; assay type: biochemical, Lelliottia amnigena; conditions: 10 mM phosphate buffer pH 7.0, 37°C
Description: as §1

[4] = test system: CO/N=C(\C(=O)N[C@@H]1C(=O)N2C(C(=O)[O-])=C(C[N+]3(C)CCCC3)CS[C@H]12)c1csc(N)n1; test: as above; assay type: biochemical, Lelliottia amnigena; conditions: 10 mM phosphate buffer pH 7.0, 37°C
Description: as §1

[5] = test system: CC1(C)S[C@@H]2[C@H](NC(=O)[C@H](N)c3ccccc3)C(=O)N2[C@H]1C(=O)O; test: as above; assay type: biochemical, Lelliottia amnigena; conditions: 10 mM phosphate buffer pH 7.0, 37°C
Description: as §1

[6] = test system: Cc1nnc(SCC2=C(C(=O)O)N3C(=O)[C@@H](NC(=O)Cn4cnnn4)[C@H]3SC2)s1; test: as above; assay type: biochemical, Lelliottia amnigena; conditions: 10 mM phosphate buffer pH 7.0, 37°C
Description: as §1

LAQ-1 = target: T1, LAQ-1 (Lelliottia amnigena, UniProt A0A8F5JT47); test: inhibition of nitrocefin hydrolysis, UV-VIS spectrophotometry; assay type: biochemical
T1 construct: gene blaLAQ
T1 sequence (A0A8F5JT47 entry or part of it): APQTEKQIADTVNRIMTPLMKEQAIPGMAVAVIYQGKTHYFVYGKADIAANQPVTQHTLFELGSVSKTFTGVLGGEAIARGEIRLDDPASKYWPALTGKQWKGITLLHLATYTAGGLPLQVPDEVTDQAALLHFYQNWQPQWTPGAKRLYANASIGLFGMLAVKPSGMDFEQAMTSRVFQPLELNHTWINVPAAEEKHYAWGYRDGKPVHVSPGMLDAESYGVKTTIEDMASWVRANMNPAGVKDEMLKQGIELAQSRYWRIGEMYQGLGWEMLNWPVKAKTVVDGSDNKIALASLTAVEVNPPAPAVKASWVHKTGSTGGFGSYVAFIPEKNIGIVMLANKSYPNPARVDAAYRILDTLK

LAQ-1 (Lelliottia amnigena) was tested, and the Km [1] was 65.4 µM, the kcat [1] was 1110 s⁻¹ and the kcat/Km [1] was 1.69e+07 M⁻¹ s⁻¹. For the same molecule, the Km [2] was 87.56 µM, the kcat [2] was 9430 s⁻¹ and the kcat/Km [2] was 1.08e+08 M⁻¹ s⁻¹. For the same molecule, the Km [3] was 140 µM, the kcat [3] was 642 s⁻¹ and the kcat/Km [3] was 4.58e+06 M⁻¹ s⁻¹. For the same molecule, the Km [4] was 57.05 µM, the kcat [4] was 467 s⁻¹ and the kcat/Km [4] was 8.18e+06 M⁻¹ s⁻¹. The Km [5] was 436.1 µM, the kcat [5] was 9140 s⁻¹ and the kcat/Km [5] was 2.1e+07 M⁻¹ s⁻¹. It also gave a Km [6] of 645 µM, a kcat [6] of 25700 s⁻¹ and a kcat/Km [6] of 3.99e+07 M⁻¹ s⁻¹.

`Nc1nc2c(ncn2[C@@H]2O[C@H](COP(=O)(O)O)[C@@H](O)[C@H]2O)c(=O)[nH]1` [GMP] showed an IC50 (LAQ-1) of 2.63 µM.

`NC(=O)[C@@H]1CC[C@@H]2CN1C(=O)N2OS(=O)(=O)O` [avibactam] was tested, and the IC50 (LAQ-1) was 0.00145 µM.
